We go through 40 sequences from the nanobody polyreactivity screen of Harvey et al. (2022).

This series can be described thus: yeast display, Sf9 membrane polyspecificity reagent, FACS + sequencing; frameworks hold sequencing errors. The gist of the method:
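Using colony PCR, genes from sorted yeast display clones were amplified, then sequenced on MiSeq at 2 × 250 and filtered by CDR length. The clones had been stained with 10% biotinylated, detergent-solubilized Sf9 membrane reagent for 1 hour at 4 °C and sorted by FACS into low and high (top ~1%) gates on anti-HA and streptavidin fluorescence. Polyreactivity labels come from the gate of origin.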
“QVQLVESGGGLVQAGGSLRLSCAASGFTFRRYAMGWYIQAPGKERELVAAIRSTGGSTYYADSVKGRFTISRDNAKNTVYLQMNSLKPEDTAVYYCNAGTPVRGYNYWGQGTQVTVSS”: the “polyreactivity (PSR sort gate)” value is given as “high polyreactivity”.
The entry for “HVQLVESGGGLVQAGGSLRLSCAASGSTLYSYAMGWYRQAPGKARELVAAISIGDSTNYADSVKGRFTISRDNAKNTVYLQMNSLKPEDTAVYYCNADRALGYYVVVFIFEYWGQGTQVTVSS” is “low polyreactivity”.
The entry for “QVQLVESGGRLVQAGGSLRLSCAPSGSIFWGYAMGWYRQAPGKERELVAVISRGGSTYYADSVKGRFTISRDNAKNTVYLKMNSLKPEDTAVYYCAASSSWFYSPEYDYWGQGTQVTVSS” is “low polyreactivity”.
The same measure for “QVQLVESGGGLVQAGGSLRLSCAASGFTFYYYDMGWYRQAPGKERELVAAITTGGSTKYADSVKGRFTISRDNAKNTVYLQMNSLKPEDTAVYYCNADDSVYVFSKYDYWGQGTQVTVSS”: “high polyreactivity”; for “QVQLVESGGGIVQAGGSLRLSCAASGRIFQYYAMGWYRQAPGKERELVASISGRGGRTYYADSVKGRFTISRDNAKNTVYLQMNSLKPEDTAVYYCNAVFSTIRYIRSYNYWGQGTQVTVSS”: “high polyreactivity”; for “QVKLVESGGGLVQAGGSLRLSCAASGGNFYRYAMGWYRQAPGKERELVAAITRGDSTNYADSVKGRFTISRDNAKNTVYLQMNSLKPEDTAVYYCNAAVSARQNDTGGFQGDYWGQGTQVTVSS”: “low polyreactivity”.
For “QVQRVESGGGLVQAGGSLRLSCAASGSIFPIYAMGWYRQAPGKERELVAGITWSGGSTYYADSVKGRFTISRDNAKNTVYLQMNSLKPEDTAVYYCAAERWHPYDYWGQGTQVTVSS”, the “polyreactivity (PSR sort gate)” value is “low polyreactivity”.
The same measure for “QVQLVESGGGLVQAGGSLRLSCAASGLTSRPYVMGWYRQAPGKERDLVAAISQTGGRTYYADSVKGRFTISRDNAKNTVYLQMNSLKPEDTAVYDCAAKYSNGSGFDYWGQGTQVTVSS”: “high polyreactivity”; for “QVQLVESGGGLVQAGGSLRLSCAASGGNFWYNTMGWYRQAPWKERELVAAISDSGGRTSYADSVKGRVTISRDNANHTVYLQMNSLKPEDTAVYYCNVDYVVSRGFIYRVDYWGQGTQVTVSS”: “low polyreactivity”.
Turning to “QVQLVESGGGLVQAGGSLRLSCAASGSIFFYYAMGWYRQAPGKERELVAAIRSGTSTNYADSVKGRFTISRDNAKNTVYLQMNSLKPEDTAVYYCAARFPGGGYGMDYWGQGTQVTVSS”, the “polyreactivity (PSR sort gate)” value is given as “low polyreactivity”.
The same measure for “QVQLVESGGGLVQAGGSLRLSCAASGSTFSRYAMGWYRQAPGKERELVAAISWGGNTYYADSVKGRFTISRDNAKNTVYLQMNSLKPEDTAVYYCNRYSKLYNTMDYWGQGTQVTVSS”: “high polyreactivity”; for “QVPLVESGGGLVQAGGSLRLSCAASGSTFRRYGMGWYREAPGKERELFAAISKGGTRTYYADSVKGRFTISRDNAKNTVYLQMNSLKPEDTAVYYCNKAWYAYGPVYASWYGEYDYWGLGTQVTVSS”: “high polyreactivity”; for “QVQLVESGGGLVQAGGSHRLSCAASGRTFEYNGKGWYRQAPGKERELVAAITRGGSTYYADSVKGRFTISRDNAKNTVYLQMNSLKPEDTAVYYCAAEVGWSRYKWLEYWGQGTQVTVSS”: “low polyreactivity”.
The same measure for “QVQLVESGGGLVQAGGSLRLSGAASGLIFWGYTMGWYRQAPGKERVLVAAISRRGGRTYYADSVKGRFTISRDNAKNTVYLQMHSLKPEDTAVDYCNADITSSGPKSDYWGQGTQVTVSS”: “high polyreactivity”; for “QVQLVESGGGLVQAGGSLRLSCAASGFTFHKYAMGWYRQAPGKERELVAAITSSGGSTYYADSVKGRFTISRDNAKNTVYLQMNSLKPEDTAVYYCNARGGGRKSYDYWGQGTQVTVSS”: “high polyreactivity”; for “QVQLVESGGGLVQAGGSLRLSCAASGFTIGANTMGWYRQAPGKERELVAAISASGGSTYYADSVKGRFTISRDNAKNTVYLQMNSLKPEDTAVYYCAARRYPGRTATYYSWGQGTQVTVSS”: “high polyreactivity”.
The entry for “QVQLVESGGGLVQAGGSLRLSCAASGFTFGSYAMGWYRQAPGKEREFVAAISLGGARTYYADSVKGRFTISRDNAKNTVYLQMNSLKPEYTAVYDCAATVRGVGYRYYYWGQGTQVTVSS” is “high polyreactivity”; for “QVQLVESGGGLVQAGGSLRLSCAASGGIFVRYAMGWYRPAPGKERELVAAISSSGDRTYYADSVKGRFTISRDTAKNTVYLQMNSLKPEDTAVYYCNADRGHDKVDYWGQGTQVTVSS” it is “low polyreactivity”.
Consider “QVQLVESGGGLVQAGGSLRLSCAASGSIFGPYAMGWYRQAPGKERELVAAITWSGDSTYYADSVKGRFTISRDNAKNTVYLQMNSLKPEDTAVYYCAAETFIWGQGTQVTVSS”, for which the “polyreactivity (PSR sort gate)” value is recorded as “low polyreactivity”.
In the case of “QVQLVESGGGLVQAGGSLRLSCAASGRIFSRNAMGWYRQAPGKERELVAAISRRGGSTSYADSVKGRFTISRDNAMNTVYLQMNSLKPEDTAVYYCAAEDEYYCTRGYWYSRYDYWGQGTQVTVSS”, the “polyreactivity (PSR sort gate)” value is listed as “high polyreactivity”.
The entry for “QVQLVESGGGLVQAGGSLRLSCAASGRIFPTYAMVWYRQAPGKDRELVASISWSGGRTYYADSVKGRFSISRDNAKITVFLQMNSLKPEDTAVYYCAKRTYQGEGTVKRRYDYWGQVTQVTVSS” is “low polyreactivity”; for “QVQLVESGGGLVQAGGSLRLSCAASGLIFSYNAMGWYRQAPGKERELVAAISYSGGSTYYADSVKGRFTISRDNAKNTVYLQMNSLKPEDTAVYYCAAVLSPDFYYWGQGTQVTVSS” it is “high polyreactivity”; for “QVQLVESGGGLVQAGGSLRLSCAASGSTFGFYAMGWYRQAPGKERELVAAISGRGGSTYYADSVKGRFTISRDNAKNTVYLQMNSLKPEDTAVYYCNADWQDDLAGYDVDYWGQGTQVTVSS” it is “low polyreactivity”.
The entry for “QVQLVESGGGLVQAGGSLRLSCAASGRIFYANTMGWYRQAPGKEWELVAAITSGGSTNYADSVKGRFTISRDNAKNTVYGQKNSLKPEDTAVYYCATKQRRGYWGYITAYARYYWGQGTQVTVSS” is “high polyreactivity”; for “QDQHVESVGGLVQAGGSLRLSCAASGRTFAWNAMGWYRQAPGKERELVAVITSGGSTNYADSVKGRFTISRDNAKNTVYLQMKSLKPEDTALYYCAAGHSWVYGYDYWGQGTQVTVSS” it is “low polyreactivity”; for “QVQLVESGGGLVQAGGSLRLSCAASGFIFGRYAMGWYRQAPGKERELVAAISRSGARTYYADSVKGRFTISRDNAKNTVYLQMNSLKPEDTAVYYCARYQPRVSFDYWGQGTQVTVSS” it is “high polyreactivity”.
With “QGQLVESGGGLVQAGGSLRLSCAASGFTFGHYAMGWYRQAPGKERELVAAIRWSGGSTYYADSVKGRFTISRDNAKNTVYLQMNSLKPEDTAVYYCAARGFDGYEYDYWGQGTQVTVSS”, the “polyreactivity (PSR sort gate)” value is reported as “low polyreactivity”.
The entry for “QVQLVESVGGLVQAGGSLRISSAASGRTFERNTKGWYRQAPGKERELVAAITYDGGSTYYADSVKGRFTISRDNAKKTVYLKMNSLKPEDTAFYYCNAGGYEIYRSPFDYWGQGSQVTVSS” is “low polyreactivity”.
The entry for “QVQLVESGGGLVQAGRSLRLSCPASGSIFIIYAMGWYRQQPGKERELVAAISASGGITYYADSVKGRFTISRDNAKNTVYLQMNRLKPEDTAVYYCAARRYRYFWVPRPYDYWGQGTQVTVSS” is “high polyreactivity”; for “QVQLVESGGGLVQAGGSLRLSCAASGGTFYDNDMGWYRQAPGKERELVATITYSGTSTYYADSVKGRFTISRDNAKNTVYLELNSLKTEDTAVYYCATDVLLYFEPVNLDYWGEGTQVTVSS” it is “low polyreactivity”.
In the case of “QVQLVETGGGLVQAGGSLRLSCAASGITFAYNTMGWYIQAPGKERELVAGISFSGASTYYADSVKGRFTISRDYAKNTVYLQMNSLKPEDTAVYDCAAPRWVANQYREYDYWGQGTQVTVSS”, the “polyreactivity (PSR sort gate)” value is reported as “high polyreactivity”.
The same measure for “QVQLVESGGGLVQAGGSLRLSCAASGITFTSYAMGWYRQAPGKERELVAAISAGGGRTYYADSVKGRFTISRDNAKNTVYLQMNSLKPEDTAVYYCAVKYPELRTWGYYYWGQGTQVTVSS”: “high polyreactivity”.
The same measure for “QVQLVESGGGLVQAGGSLRLICAASRSIFEINAMGWYSQAPGKERELVADNRRGDSTNYADSVNGRFTISRDNAKNTVYLQMNSLKPEVTAVYYCAARWRRSIYGVYPQRPYDYWGQGTQVTVSS”: “high polyreactivity”.
The same measure for “QVQLVESGGGLVQAGGSLRLSCAASGNIFYTYAMGWYRQAPGKERELVAAITWSGGSTYYADSVKGRFTISRDNAKNTVYLQMNSLKPEDTAVYYCAAESLGYYYSGGYYSIYDHWGQGTQVTVSS”: “high polyreactivity”.
As for “QVQLVESAGGLVQAGGSLSLSCAASGSTFASYAMGWYRQAPGKEREFVAAITRSGTSTYYADSVKGRFTISRDNAKNTVYLQMNSLKPEDTAVYYCNATRRTVGFGYWGQGTQVTVSS”, the “polyreactivity (PSR sort gate)” value was “high polyreactivity”.
The same measure for “QDQLGESGGGLVQAGGSLRLSCAASGRSFTYYTMGWYRQAPGKERELVATINNSGGSTYYADSVKGRFTISRDNAKNTVYLQMNSLKPEDTAVYYCAKVLGLPYGAPRSIFVEWEMDYWGQGTQVTVSS”: “low polyreactivity”; for “QVQLVESGGGLVQEGGSLRLSCAASGSTFYWYAMGWYRQAPGKERELVATISNTGRTYYADSVKGRFTISRDNAKNTVYLQMNSLKPEDTAVYDCAAKRSQRWRYDYWGQGTQVTVSS”: “high polyreactivity”.
The same measure for “QVQLVESGGGIVQAGGSLRLSCAASGSIFHYYAMGWYRQAPGKESELVAAISWSGGRTNYADSVKGRFTISRDNAKNTVYLQMNSLKPEDTAVYYCAAAERSFSGGGKIGKYYYWGQGTQVTVSS”: “high polyreactivity”; for “QVQLEESGGGLVQAGGSLRISCAAAGSTFRSNAMGWYRPAPRKERELVAAINSGGSTYYADSVKGRFTISRDNAKNTVYLQMNSLKPEDTAVYYCAARYYTPFGTYRQNIRMYYWGQGTQVTVSS”: “high polyreactivity”; for “QVQLVESGGGLVQAGVSLRFSCAASGYIFDVNALGWYRQEPGKERELVAAISQRGTRTYYADSVKGRFTITRDNANNTVFLQMNSLKPEYTAVYYCNRGGWRQYDSWGQGTQVTVSS”: “high polyreactivity”.
